± gives the uncertainty stated by the source.
B1: Nucleosome-remodeling factor subunit BPTF, residues 2862 to 2918; numbered along this chain, Q12830 (parent)
chain: TKKDTKLYCICKTPYDESKFYIGCDRCQNWYHGRCVGILQSEAELIDEYVCPQCQST

Variants of: B1
Experiment: abundance fitness (aPCA) (normalised: wild type 0, dead -1); higher = more abundant; growth selection in yeast, the domain comes from the species named
Conditions: Homo sapiens

Variant | abundance fitness
C35F | -0.92 ± 0.12
C35S | -0.75 ± 0.076
C35R | -1.01 ± 0.085
C35K | -0.915 ± 0.13
W30F | 0.115 ± 0.13
W30R | 0.142 ± 0.076
W30I | -0.033 ± 0.1
W30P | -0.155 ± 0.099
W30G | -0.116 ± 0.09
W30L | 0.127 ± 0.075
W30D | -0.097 ± 0.14
W30K | 0.163 ± 0.1
W30N | -0.159 ± 0.1
W30T | 0.095 ± 0.099
V50F | -0.099 ± 0.12
V50G | -0.672 ± 0.088
V50H | -0.288 ± 0.12
V50W | -0.156 ± 0.078
V50L | 0.015 ± 0.074
V50K | -0.102 ± 0.11
V50R | -0.145 ± 0.062
V50S | -0.167 ± 0.077
T1K | -0.199 ± 0.16
T1W | -0.152 ± 0.19

Variant | abundance fitness
T1I | -0.132 ± 0.19
T1G | -0.147 ± 0.15
T1E | -0.185 ± 0.28
E48Y | -0.125 ± 0.1
E48S | 0.051 ± 0.088
E48N | 0.076 ± 0.14
E48K | -0.109 ± 0.12
E48V | -0.022 ± 0.09
E48P | 0.086 ± 0.086
E48L | -0.139 ± 0.083
E48A | -0.008 ± 0.095
E48I | -0.063 ± 0.12
E48H | -0.062 ± 0.11
E48W | -0.295 ± 0.12
C27P | -1.08 ± 0.14
C27K | -0.822 ± 0.09
C27L | -1.04 ± 0.11
C27Y | -0.844 ± 0.15
C27R | -0.915 ± 0.085
C27I | -1.15 ± 0.29
C27Q | -0.956 ± 0.1
C27G | -0.758 ± 0.089
C27F | -0.843 ± 0.2
C27A | -1.05 ± 0.13

Variant | abundance fitness
C27D | -0.962 ± 0.25
C9V | -0.986 ± 0.084
C9Q | -0.846 ± 0.099
C9I | -1.05 ± 0.094
C9G | -0.801 ± 0.078
C9E | -0.971 ± 0.22
C9A | -0.877 ± 0.081
C9P | -0.716 ± 0.068
C51M | -0.688 ± 0.15
C51I | -1.08 ± 0.17
C51H | -0.848 ± 0.23
C51S | -0.53 ± 0.089
G37E | -0.23 ± 0.1
G37R | -0.207 ± 0.073
G37C | -0.379 ± 0.092
G37P | -0.99 ± 0.15
L7S | -0.046 ± 0.057
L7W | -0.13 ± 0.076
L7N | 0.037 ± 0.079
L7K | -0.219 ± 0.084
L7V | -0.076 ± 0.072
L7D | 0.023 ± 0.1
L7H | 0.018 ± 0.067
L7G | -0.005 ± 0.073

Variant | abundance fitness
C11R | -0.818 ± 0.1
C11D | -0.759 ± 0.11
C11G | -0.771 ± 0.079
C11L | -0.828 ± 0.092
C11K | -0.822 ± 0.15
L45P | -0.309 ± 0.086
L45H | 0.101 ± 0.11
L45K | -0.018 ± 0.11
L45I | -0.128 ± 0.096
L45A | -0.111 ± 0.081
Y15A | -0.366 ± 0.081
Y15H | -0.106 ± 0.12
Y15V | -0.275 ± 0.074
Y15P | -0.313 ± 0.082
Y15Q | -0.665 ± 0.14
C24Y | -0.894 ± 0.1
C24R | -0.584 ± 0.096
C24T | -0.933 ± 0.12
C24E | -0.641 ± 0.14
C24I | -0.871 ± 0.16
I38H | -0.342 ± 0.13
I38D | -0.432 ± 0.1
I38E | -0.44 ± 0.16
I38N | -0.547 ± 0.11

Variant | abundance fitness
I38Y | -0.059 ± 0.11
E42W | -0.539 ± 0.18
E42N | -0.279 ± 0.17
E42G | -0.294 ± 0.13
E42R | -0.403 ± 0.12
E42V | -0.269 ± 0.12
E42Y | -0.304 ± 0.21
E42T | -0.37 ± 0.11
H32T | -1.1 ± 0.13
H32D | -0.9 ± 0.16
H32E | -0.929 ± 0.17
H32A | -0.832 ± 0.12
H32S | -0.797 ± 0.094
H32Y | -1 ± 0.17
H32Q | -0.898 ± 0.13
H32G | -0.831 ± 0.12
R26N | 0.075 ± 0.099
R26T | 0.067 ± 0.094
R26G | 0.041 ± 0.077
R26F | -0.279 ± 0.11
R26I | 0.043 ± 0.087
P52D | 0.113 ± 0.12
P52G | -0.019 ± 0.079
P52C | -0.186 ± 0.11

Variant | abundance fitness
S18Y | -0.37 ± 0.13
S18Q | -0.5 ± 0.29
S18G | -0.087 ± 0.1
C54E | -0.776 ± 0.16
C54I | -1.06 ± 0.15
C54Y | -0.983 ± 0.13
C54H | -0.512 ± 0.13
C54M | -0.648 ± 0.11
T5H | -0.055 ± 0.066
T5L | -0.092 ± 0.063
T5C | 0.002 ± 0.077
T5K | 0.05 ± 0.086
T5A | -0.213 ± 0.07
T5Q | -0.052 ± 0.1
T5F | -0.076 ± 0.068
T5G | -0.155 ± 0.073
Y8A | 0.065 ± 0.09
Y8P | -0.298 ± 0.1
Y8R | -0.105 ± 0.078
Y8W | -0.164 ± 0.11
N29Y | -0.376 ± 0.11
N29E | -0.328 ± 0.29
N29Q | 0.089 ± 0.15
N29C | -0.353 ± 0.096

Variant | abundance fitness
N29I | -0.431 ± 0.11
N29K | -0.124 ± 0.12
A43G | -0.028 ± 0.12
A43K | -0.025 ± 0.12
A43W | -0.182 ± 0.14
A43Y | -0.074 ± 0.18
A43E | -0.226 ± 0.18
A43V | -0.036 ± 0.096
D16P | -0.622 ± 0.1
D16M | -0.194 ± 0.11
D16H | -0.55 ± 0.093
D16K | -0.452 ± 0.11
D16Q | -0.182 ± 0.1
D16C | -0.449 ± 0.14
D16W | -0.778 ± 0.18
Q53I | 0.09 ± 0.13
Q53P | -0.054 ± 0.093
Q53G | 0.028 ± 0.092
Q53D | 0.037 ± 0.11
Q53K | -0.122 ± 0.11
F20D | -0.062 ± 0.13
F20C | -0.346 ± 0.11
F20R | -0.149 ± 0.067
